Experimental data: PMC3735172
Where two headings read alike, the source gives them in different places.

T1: MtAlba(R39) (Methanothermobacter thermautotrophicus, UniProt O27527 1-91, I39R)
T1 sequence: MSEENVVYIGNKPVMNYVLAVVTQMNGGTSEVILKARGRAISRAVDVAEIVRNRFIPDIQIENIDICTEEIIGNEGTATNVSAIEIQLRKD

T2: MtAlba(I39) (Methanothermobacter thermautotrophicus …, UniProt O27527 1-91)
T2 sequence: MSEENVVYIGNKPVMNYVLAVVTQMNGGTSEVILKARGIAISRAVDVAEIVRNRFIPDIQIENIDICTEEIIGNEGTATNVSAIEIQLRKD


Assays:
Assay in all cases: EMSA
MtAlba(R39) = biological target: T1, MtAlba(R39)
MtAlba(I39) [1] = biological target: T2, MtAlba(I39)
MtAlba(I39) [2] = biological target: T2, MtAlba(I39); remark: listed apart in the source

Row | Binder | Kd (MtAlba(R39)) | binding result (MtAlba(I39) [1]) | binding result (MtAlba(I39) [2])
1 | tRNAPro (structured_RNA) RNA: GGGCGAGUAGCGCAGCUUGGUAGCGCAACUGGUUUGGGACCAGUGGGUCGGAGGUUCGAAUCCUCUCUCGUCCACCA | ~1000 nM | no binding | –
2 | 36 bp dsDNA (dsDNA) DNA 1: ATCAATTAAAGCGTTCTACGGCGTTTTAGATCTGAT DNA 2: ATCAGATCTAAAACGCCGTAGAACGCTTTAATTGAT | ~200 nM | – | no binding
3 | UUAAAGCCCGUGGAAGAGCC (ssRNA) [ssRNA] | ~1500 nM | no binding | –
